Measurements taken from US12385914B2, “CRY1-clock-BMAL1 complex-disrupting agents and methods of identifying and using same” (The Regents of the University of California, priority 2017, dated 2025).
Entries after “also recorded” stand apart in the source; their conditions may differ.

Target: T1, CRY1-CLOCK PAS-B domain complex (Mus musculus, UniProt P97784)
T1 construct: His6 (N, cleaved yes); made in house; host or cells: CRY1 PHR: Sf9 insect cells (baculovirus)
T1 sequence (P97784 with tags, fused parts or gaps): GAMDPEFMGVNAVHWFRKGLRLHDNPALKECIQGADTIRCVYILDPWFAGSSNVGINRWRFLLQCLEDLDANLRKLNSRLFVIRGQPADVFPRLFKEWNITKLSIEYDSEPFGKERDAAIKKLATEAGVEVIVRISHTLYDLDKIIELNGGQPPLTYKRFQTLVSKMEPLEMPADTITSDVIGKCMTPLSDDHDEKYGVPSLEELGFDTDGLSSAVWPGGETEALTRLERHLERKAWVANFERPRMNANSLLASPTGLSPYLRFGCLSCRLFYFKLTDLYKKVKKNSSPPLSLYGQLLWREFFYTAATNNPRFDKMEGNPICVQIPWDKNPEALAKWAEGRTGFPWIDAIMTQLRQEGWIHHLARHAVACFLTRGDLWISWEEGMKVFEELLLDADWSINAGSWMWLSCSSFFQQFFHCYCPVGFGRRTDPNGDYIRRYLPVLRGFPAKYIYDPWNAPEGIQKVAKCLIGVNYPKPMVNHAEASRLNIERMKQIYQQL
Experiment: Fluorescence polarization (FP)-based displacement assay of labeled CLOCK PAS-B from CRY1 PHR
Type: binding
Conditions: 100 μM peptide; 20 nM CLOCK PAS-B probe and 4 μM CRY1 PHR; triplicate wells; FIG. 13
Experimental: Described in this example is a fluorescence polarization (FP)-based displacement assay developed by the inventors for identifying agents that disrupt the CRY1-CLOCK-BMAL1 ternary complex.
CRY1 PHR and CLOCK PAS-B domain fluorescently labeled at its N-terminus were prepared as described in the preceding examples. Equipment/Reagents included the following: Greiner 384 Well Assay Plate, 120 μl rounded square wells, flat bottom, black polystyrene; Envision 2103 Multilabel Reader (2103-0020); Fluorescence Polarization (FP) assay buffer (50 mM Bis-Tris Propane, 100 mM NaCl, 2 mM TCEP, 0.05% Tween-20, 0.5% DMSO, pH 7.5); and GraphPad Prism (version 6 or higher). All assay components were buffer exchanged into FP buffer.
A stock assay mixture of 8 μM CRY1 and 40 nM labeled CLOCK PAS-B was incubated at 4° C. overnight. Equal volumes (half of final well volume) stock assay mixture was dispensed into wells of the Greiner 384 Well Assay Plate, reserving wells for appropriate controls. […] Fluorescence polarization was measured using an Envision 2013 plate reader.
A labeled CLOCK PAS-B-only control of 20 nM was used to determine the G-factor for FP. The G-factor should be variable “G” such that Fluorescence polarization (FP)=1000*(S−G*P)/(S+G*P). […] G=(S/P)*(1−27/1000)/(1+27/1000), with S being the parallel fluorescence intensity, and P being the perpendicular fluorescence intensity. […]

peptide encoded by CRY1 Exon 11: 23 residue peptide encoded by human CRY1 Exon 11 (residues 530-552), sequence CSQGSG1LHYAHGDSQQTHLLK; positive control inhibitor (CSQGSGILHYAHGDSQQTHLLK; listed as Homo sapiens)
displacement of CLOCK PAS-B from the CRY1 PHR: displaced CLOCK PAS-B from the CRY1 PHR; also recorded: able to displace CLOCK PAS-B from the CRY1 PHR
